Measured values from patent publication US11524046B2, “Biofilm prevention, disruption and treatment with bacteriophage lysin” (priority 2012, dated 2022).

Legend:
[1] = system: S. aureus MRSA strain BAA-42; assay: Biofilm prevention assay, 24 well plate, crystal violet; assay type: cell-based; details: added with bacteria, 6 hours
[2] = system: Streptococcus mutans; assay: MIC of PlySs2, susceptible and non-susceptible bacterial strains; assay type: cell-based; details: Streptococcus mutans (12)
[3] = system: S. epidermidis (strain CFS 313 NRS34) biofilm; assay: S. epidermidis catheter biofilm titration, methylene blue staining; assay type: cell-based; details: MIC 8 ug/ml
Protocol: S. epidermidis biofilms in catheters were treated with PlySs2 and evaluated using methods similarly as described above for the S. aureus studies.
The results of S. epidermidis (strain CFS 313 NRS34, which is a vancomycin intermediate sensitive S. epidermidis (VISE) strain) biofilm studies on catheters treated with PlySs2 at 10×MIC and below are shown in FIG. 17. S. epidermidis biofilm is destroyed at PlySs2 concentrations down to 0.1×MIC. The MIC here is 8 ug/ml.

[4] = system: Streptococcus pyogenes, Group A; assay: MIC of PlySs2, susceptible and non-susceptible bacterial strains; assay type: cell-based; details: Group A (54)
[5] = system: Streptococcus agalactiae, Group B; assay: as above; assay type: cell-based; details: Group B (51)
[6] = system: Bacillus cereus; details: Bacillus cereus (10)
[7] = system: Lactococcus spp.; details: N 3
[8] = system: staphylococci; assay: PlySs2 stability at 37° C. in Lactated Ringer's solution, residual lytic activity; assay type: physicochemical; details: 1X MIC
Protocol: To determine the stability of PlySs2 in a simulated catheter setting, PlySs2 was incubated at various concentrations in Lactated Ringer's solution at 37° C. After 7 days, the lytic activity of PlySs2 was assessed by adding 1×10^5 staphylococci, incubating for 4 hours, then treating with proteinase K to remove residual PlySs2, and serial dilution and plating for viability. The resulting CFU value for each condition was divided by 1×10^5 to determine the % Loss of Activity.

[9] = system: MRSA biofilms grown on catheters (strain ATCC BAA-42); assay: Catheter biofilm residual CFU, BacTiter-Glo luciferase estimate
[10] = system: biofilms of MRSA strain CFS 218 (MRSA strain ATCC BAA-42); assay: Scanning electron microscopy of treated catheter biofilms; assay type: cell-based, S. aureus; details: 1×MIC (32 ug/ml)
From the text: Biofilms were generated on catheter tubing (PVC with DEHP as plasticizer) as above and evaluated for PlySs2 sensitivity by scanning electron microscopy (SEM). […] After fixation on the catheter surface, samples were further processed and analyzed by scanning electron microscopy at 5000× magnification (FIGS. 21A-21C). Treatment with buffer alone (ie, Lactated Ringer's Solution alone) is included as a control.

[11] = system: MRSA strains CFS 553 (ATCC 43300) and CFS 992 (JMI 5381); assay: MIC of PlySs2 against additional MRSA strains; assay type: cell-based, S. aureus
[12] = system: Lactobacillus spp.; details: N 6
[13] = system: Staphylococcus epidermidis biofilms; assay: Biofilm eradicating concentration (BEC), 24 h biofilms in 24 well plates, crystal violet; assay type: cell-based
[14] = system: Escherichia coli; details: Escherichia coli (6)
[15] = system: Enterococcus faecalis; details: Enterococcus faecalis (17)
[16] = system: Listeria monocytogenes; assay: MIC of PlySs2, susceptible and non-susceptible bacterial strains; assay type: cell-based; details: Listeria monocytogenes (12)
[17] = system: Staphylococcus lugdiensis; assay: as above; assay type: cell-based; details: Staphylococcus lugdiensis (10)
[18] = system: MRSA biofilms grown on catheters (strain ATCC BAA-42); assay: Catheter biofilm eradication in vitro, methylene blue staining
[19] = system: MRSA strains CFS 553 (ATCC 43300) and CFS 992 (JMI 5381) biofilms; assay: Catheter biofilm titration of additional MRSA strains, methylene blue staining; assay type: cell-based, S. aureus; details: 4 hours
[20] = system: Staphylococcus epidermidis; assay: MIC of PlySs2, susceptible and non-susceptible bacterial strains; assay type: cell-based; details: Staphylococcus epidermidis (11)
[21] = system: methicillin resistant S. aureus MRSA strain ATCC BAA-42; assay: MIC by broth microdilution (CLSI M07-A9) against strain ATCC BAA-42; assay type: cell-based

B1: PlySs2: bacteriophage lysin derived from Streptococcus suis, amino acid sequence of FIG. 5 / SEQ ID NO: 1; CHAP and SH3 domains (protein, listed as Streptococcus suis)
chain: MTTVNEALNNVRAQVGSGVSVGNGECYALASWYERMISPDATVGLGAGVGWVSGAIGDTISAKNIGSSYNWQANGWTVSTSGPFKAGQIVTLGATPGNPYGHVVIVEAVDGDRLTILEQNYGGKRYPVRNYYSAASYRQQVVHYITPPGTVAQSAPNLAGSRSYRETGTMTVTVDALNVRRAPNTSGEIVAVYKRGESFDYDTVIIDVNGYVWVSYIGGSGKRNYVATGATKDGKRFGNAWGTFK
- prevention of biofilm formation ([1]; 0.1×MIC): effectively and completely prevent
- prevention of biofilm formation ([1]; 1×MIC (32 ug/ml)): effectively and completely prevent
- MIC 50% [2]: 64 µg/mL
- MIC 90% [2]: 256 µg/mL
- MIC Range [2]: 2 to 256 µg/mL
- lowest concentration at which biofilm is destroyed [3]: 0.1 ×MIC
- MIC 50% [4]: 2 µg/mL
- MIC 90% [4]: 8 µg/mL
- MIC Range [4]: 0.5 to 8 µg/mL
- MIC 50% [5]: 8 µg/mL
- MIC 90% [5]: 16 µg/mL
- MIC Range [5]: 1 to 64 µg/mL
- MIC 50% [6]: >512 µg/mL
- MIC 90% [6]: >512 µg/mL
- MIC Range [6]: >512 µg/mL
- CF-301 MIC [7]: >512 µg/mL
- % LOSS OF ACTIVITY (7 days) [8]: 58.3%
- CFUs remaining in catheter biofilm ([9]; 1×MIC, 24 hours, 100 CFU/ml is the limit of detection): 100 CFU/ml
- lowest concentration active at removing biofilm bacteria ([9]; titration, CFU): 0.01 ×MIC
- biofilm on catheter surface by SEM ([10]; 30 seconds): rapidly diminishes
- biofilm on catheter surface by SEM ([10]; 15 minutes): almost completely removes
- 1×MIC ([11]; strain ATCC 4330): 16 µg/mL
- 1×MIC ([11]; strain JMI 5381): 32 µg/mL
- CF-301 MIC [12]: >512 µg/mL
- BEC ([13]; CFS 166, Environmental lab contaiminant): 5.12 µg/mL
- BEC ([13]; CFS 224, HER 1292): 5.12 µg/mL
- BEC ([13]; CFS 225, HPH-6): 0.512 µg/mL
- BEC ([13]; CFS 226, HPH-5): 5.12 µg/mL
- BEC ([13]; CFS 227, HCN-4): 5.12 µg/mL
- BEC ([13]; CFS 272, NRS53 (VISE)): 0.215 µg/mL
- BEC ([13]; CFS 280, NRS101 (MRSE)): 0.512 µg/mL
- BEC ([13]; CFS 300, NRS8, (VISE)): 0.512 µg/mL
- BEC ([13]; CFS 313, NRS34 (VISE)): 0.512 µg/mL
- BEC ([13]; CFS 533, NRS6, (VISE), bloodstream USA): 0.512 µg/mL
- BEC ([13]; CFS 552, ATCC #12228 (MSSE)): 51.2 µg/mL
- BEC ([13]; CFS 769, NRS101): 0.512 µg/mL
- BEC ([13]; CFS 1152, ATCC-14990): 5.12 µg/mL
- BEC ([13]; CFS 1154, ATCC-49461): 5.12 µg/mL
- BEC ([13]; CFS 1161, NRS850-VCU028): 5.12 µg/mL
- BEC ([13]; CFS 1164, NRS853-VCU041): 5.12 µg/mL
- BEC ([13]; CFS 1165, NRS854-VCU045): 5.12 µg/mL
- BEC ([13]; CFS 1168, NRS857-VCU065): 0.512 µg/mL
- BEC ([13]; CFS 1174, NRS864-VCU112): 51.2 µg/mL
- BEC ([13]; CFS 1184, NRS874-VCU126): 5.12 µg/mL
- BEC ([13]; CFS 1185, NRS875-VCU127): 5.12 µg/mL
- BEC ([13]; CFS 1186, NRS876-VCU128): 0.512 µg/mL
- MIC 50% [14]: >512 µg/mL
- MIC 90% [14]: >512 µg/mL
- MIC Range [14]: >512 µg/mL
- MIC 50% [15]: >512 µg/mL
- MIC 90% [15]: >512 µg/mL
- MIC 50% [16]: 128 µg/mL
- MIC 90% [16]: 512 µg/mL
- MIC Range [16]: 1 to 512 µg/mL
- MIC 50% [17]: 8 µg/mL
- MIC 90% [17]: 8 µg/mL
- MIC Range [17]: 8 µg/mL
- time of full removal of stainable biofilm ([18]; 1×MIC (32 ug/mL)): ≤ 60 min
- biofilm clearance from the catheter ([18]; 1×MIC, 24 hours): completely cleared
- catheter biofilm eradication ([19]; CFS 553 (ATCC 43300), 0.01×MIC): significantly reduced
- catheter biofilm eradication ([19]; CFS 553 (ATCC 43300), 10×MIC, 1×MIC, and 0.1×MIC): eradicated and fully dispersed
- catheter biofilm eradication ([19]; CFS 992 (JMI 5381), 0.01×MIC): significantly reduced
- catheter biofilm eradication ([19]; CFS 992 (JMI 5381), 10×MIC, 1×MIC, and 0.1×MIC): eradicated and fully dispersed
- MIC 50% [20]: 128 µg/mL
- MIC 90% [20]: 512 µg/mL
- MIC Range [20]: 4 to 512 µg/mL
- MIC value ([21]; ATCC BAA-42, in the absence of reducing agent): 32 µg/mL
- Minimally inhibitory concentration (MIC) ([21]; ATCC BAA-42, in the presence of reducing agent (such as DTT or BMS)): 16 µg/mL
